Results reported in paper PMC6210676.

Molecular target: calcium/calmodulin dependent protein kinase IIα (UniProt Q9UQM7)
Sequence of UniProt Q9UQM7 (Q9UQM7 whole entry): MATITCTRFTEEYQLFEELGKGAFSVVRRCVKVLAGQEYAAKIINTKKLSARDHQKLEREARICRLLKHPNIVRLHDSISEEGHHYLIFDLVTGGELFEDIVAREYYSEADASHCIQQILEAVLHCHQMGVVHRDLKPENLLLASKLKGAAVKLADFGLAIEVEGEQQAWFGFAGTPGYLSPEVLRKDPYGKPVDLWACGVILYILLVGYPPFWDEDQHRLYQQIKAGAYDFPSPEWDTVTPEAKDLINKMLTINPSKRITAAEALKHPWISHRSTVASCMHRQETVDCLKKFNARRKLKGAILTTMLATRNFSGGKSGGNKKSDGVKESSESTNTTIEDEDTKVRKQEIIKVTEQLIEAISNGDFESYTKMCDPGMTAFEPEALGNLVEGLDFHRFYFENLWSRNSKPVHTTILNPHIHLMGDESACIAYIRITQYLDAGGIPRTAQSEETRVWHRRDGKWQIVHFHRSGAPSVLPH

half maximal activation of CaMKIIα (phosphorylation of syntide-2, HPLC), calmodulin 10^-9 to 10^-6 M, 0.5 mM calcium chloride, 37°	Substance
129 nM	MetO77 calmodulin (from UniProt P0DP23 1-149) (natural protein)
64 nM	wild type calmodulin (recombinant, human) (from UniProt P0DP23 1-149) (natural protein)
